Assay results as given in US20100022445A1 (BAXALTA, published 2010).
*1 amine or outer side, *2 acyl side, *3 side chain or, on linkers, in order; H or OH if unused. Where no end group is shown, it is not given here. [ ]: non-standard residue; d: D form. NH(CH2)3(OCH2CH2)2O(CH2)3NH = C(CN[*:1])COCCOCCOCCCN[*:2]

B1: B03 (Ac-cimfwydeye-NH2) (peptide)
peptide: Ac-[dC][dI][dM][dF][dW][dY][dD][dE][dY][dE]-NH2
SMILES: CC[C@@H](C)[C@@H](NC(=O)[C@@H](CS)NC(C)=O)C(=O)N[C@H](CCSC)C(=O)N[C@H](Cc1ccccc1)C(=O)N[C@H](Cc1c[nH]c2ccccc12)C(=O)N[C@H](Cc1ccc(O)cc1)C(=O)N[C@H](CC(=O)O)C(=O)N[C@H](CCC(=O)O)C(=O)N[C@H](Cc1ccc(O)cc1)C(=O)N[C@H](CCC(=O)O)C(N)=O

Key:
[1] = molecular target: HERG channel (UniProt Q12809 1-1159, limits assumed); test: cell-based or functional assay
[2] = molecular target: mouse plasma; test: equilibrium dialysis (HTD-96, 12-14 kD cut-off), 5 µM A01 in undiluted mouse plasma, 6 h at 37 °C, LC/MS/MS
[3] = molecular target: human plasma; test: equilibrium dialysis (HTD-96, 12-14 kD cut-off), 5 µM A01 in undiluted human plasma, 6 h at 37 °C, LC/MS/MS

Sequence of HERG channel (Q12809 whole entry): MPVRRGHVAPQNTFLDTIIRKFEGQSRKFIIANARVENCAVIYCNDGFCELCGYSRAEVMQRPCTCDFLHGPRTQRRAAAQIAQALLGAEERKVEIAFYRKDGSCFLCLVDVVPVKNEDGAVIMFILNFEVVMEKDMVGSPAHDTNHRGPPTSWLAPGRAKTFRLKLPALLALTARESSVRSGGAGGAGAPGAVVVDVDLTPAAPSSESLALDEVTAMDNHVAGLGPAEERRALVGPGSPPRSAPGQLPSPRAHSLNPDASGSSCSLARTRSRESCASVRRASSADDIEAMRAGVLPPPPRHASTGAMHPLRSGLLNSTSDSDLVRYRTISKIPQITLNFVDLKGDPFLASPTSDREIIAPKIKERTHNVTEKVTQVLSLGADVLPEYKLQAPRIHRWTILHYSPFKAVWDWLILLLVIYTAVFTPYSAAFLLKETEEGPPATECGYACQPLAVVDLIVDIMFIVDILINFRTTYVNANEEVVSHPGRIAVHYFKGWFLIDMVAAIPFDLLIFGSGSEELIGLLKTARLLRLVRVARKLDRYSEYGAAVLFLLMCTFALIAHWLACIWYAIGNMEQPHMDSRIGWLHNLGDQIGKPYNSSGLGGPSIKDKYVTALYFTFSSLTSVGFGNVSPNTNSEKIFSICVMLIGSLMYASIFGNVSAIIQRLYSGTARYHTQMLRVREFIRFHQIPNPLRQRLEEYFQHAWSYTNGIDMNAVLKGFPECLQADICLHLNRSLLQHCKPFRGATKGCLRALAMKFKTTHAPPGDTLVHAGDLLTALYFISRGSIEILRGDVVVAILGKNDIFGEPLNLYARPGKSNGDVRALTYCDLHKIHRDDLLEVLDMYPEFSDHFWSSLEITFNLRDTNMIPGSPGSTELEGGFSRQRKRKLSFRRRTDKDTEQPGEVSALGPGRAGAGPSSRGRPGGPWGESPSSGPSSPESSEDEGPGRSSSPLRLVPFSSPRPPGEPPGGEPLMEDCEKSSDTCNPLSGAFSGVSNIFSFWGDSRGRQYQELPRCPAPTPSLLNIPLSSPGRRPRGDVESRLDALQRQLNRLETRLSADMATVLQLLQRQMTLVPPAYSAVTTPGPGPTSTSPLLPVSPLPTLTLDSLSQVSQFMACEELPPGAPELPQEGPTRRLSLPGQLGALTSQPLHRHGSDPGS

Binder | HERG inhibition patch-clamp (% Inhibition of Tail Current at 1 µM) [1] | HERG inhibition Rb+ efflux (% Inhibition at 10 µM) [1] | further results
Ac-RMKFDVWDLYFEIVW-NH2 [A01 (Ac-RMKFDVWDLYFEIVW-NH2)] | 16.5% | – | –
Ac-WDLYFEIVW-NH2 [A05 (Ac-WDLYFEIVW-NH2)] | 14.5% | – | –
PEG5000-RMKFDVWDLYFEIVW-NH2 [A16 (PEG5000-RMKFDVWDLYFEIVW-NH2)] | 22.2% | – | –
Ac-PMKFDVWDLYFEIVW-NH2 [A02 (Ac-PMKFDVWDLYFEIVW-NH2)] | – | -3.3% | –
ERMEFDVWDLYFEIVW-NH2 [A09 (ERMEFDVWDLYFEIVW-NH2)] | – | -1.6% | –
Ac-WDLYFEIVW[NH(CH2)3(OCH2CH2)2O(CH2)3NH]E [A07 (Ac-WDLYFEIVW-ttds-E)] | – | -3.4% | –
Ac-WDLYFEIVWE [A06 (Ac-WDLYFEIVWE)] | – | -6.4% | –
Ac-RMKFDVWDLYFEIVW-NH2 [A01 (Ac-…-NH2)] | – | – | Average % Bound [2]: > 99.2%; Average % Bound [3]: > 98.3%
B1 | 84.5% | -2.1% | –
